The target in this assay is Chicken egg white-derived lysozyme (Sigma-Aldrich) (chicken) (UniProt P00698). In words: SPR, Biacore T200; antigen immobilized, antibody as analyte, as in Example 1. On the technique in general: Surface plasmon resonance follows binding to a sensor surface in real time, without labels.
Sequence of Chicken egg white-derived lysozyme (Sigma-Aldrich) (chicken) (P00698 19-147): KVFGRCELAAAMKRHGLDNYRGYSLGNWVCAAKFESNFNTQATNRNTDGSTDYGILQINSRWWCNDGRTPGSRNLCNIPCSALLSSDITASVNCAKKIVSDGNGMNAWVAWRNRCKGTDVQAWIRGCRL

The term Kd denotes a measure of binding affinity in units of concentration. The low end stands for higher affinity, the high end for lower affinity. “Wild-type mouse anti-lysozyme antibody of clone Hy-HEL5” came in with a Kd of 0.177 nM.

(Values after patent US20210230307A1.)
